In patent US20160168251A1 (MorphoSys, published 2016):

Legend:
[1] = molecular target: T1, rhesus monkey NPRA on HEK cells bound to ANP (rhesus monkey, UniProt F7HE88 33-1061; P01160 124-151, chain 2: ANP is cyclic, its 17-residue ring closed by a disulfide bond between its two cysteines); assay: KinExA whole cell binding (Kd,app), HEK cells with rhesus NPRA, ANP bound
T1 construct: also called Rhesus NPRA
T1 sequence: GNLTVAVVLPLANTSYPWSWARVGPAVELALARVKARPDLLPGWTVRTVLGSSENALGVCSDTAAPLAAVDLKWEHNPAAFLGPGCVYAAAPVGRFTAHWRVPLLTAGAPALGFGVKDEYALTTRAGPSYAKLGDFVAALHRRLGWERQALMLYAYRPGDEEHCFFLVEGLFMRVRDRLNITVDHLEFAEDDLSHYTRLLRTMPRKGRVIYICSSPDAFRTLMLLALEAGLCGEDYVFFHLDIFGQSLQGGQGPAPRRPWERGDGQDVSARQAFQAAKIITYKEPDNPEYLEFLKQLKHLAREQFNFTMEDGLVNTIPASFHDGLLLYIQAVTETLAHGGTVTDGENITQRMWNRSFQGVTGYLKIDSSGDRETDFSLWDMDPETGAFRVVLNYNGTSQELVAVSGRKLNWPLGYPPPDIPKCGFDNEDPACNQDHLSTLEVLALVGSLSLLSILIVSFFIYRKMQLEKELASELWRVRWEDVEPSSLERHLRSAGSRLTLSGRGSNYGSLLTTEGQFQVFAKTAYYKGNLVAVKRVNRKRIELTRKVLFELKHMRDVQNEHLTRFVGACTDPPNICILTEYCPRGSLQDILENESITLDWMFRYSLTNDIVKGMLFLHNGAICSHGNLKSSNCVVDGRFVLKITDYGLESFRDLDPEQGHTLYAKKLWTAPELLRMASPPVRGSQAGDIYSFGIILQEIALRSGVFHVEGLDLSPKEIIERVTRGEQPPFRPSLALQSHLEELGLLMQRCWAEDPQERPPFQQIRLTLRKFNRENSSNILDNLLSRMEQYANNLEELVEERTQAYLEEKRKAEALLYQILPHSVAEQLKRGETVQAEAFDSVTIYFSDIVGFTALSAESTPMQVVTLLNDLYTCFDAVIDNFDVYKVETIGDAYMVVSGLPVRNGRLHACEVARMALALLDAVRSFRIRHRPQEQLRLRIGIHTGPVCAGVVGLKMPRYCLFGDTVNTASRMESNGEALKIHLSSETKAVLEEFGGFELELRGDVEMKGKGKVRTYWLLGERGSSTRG
T1 sequence (peptide): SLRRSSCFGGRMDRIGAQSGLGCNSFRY
Method: Initial species cross-reactivity studies are performed using HEK cell lines overexpressing rat, canine and rhesus monkey NPRA. […] These apparent Kd values are obtained by globally fitting the data for two antibody concentrations.

[2] = molecular target: T2, rat NPRA on HEK cells bound to ANP (rat, UniProt P18910 29-1057; P01161 123-150); assay: cell-based or functional assay
T2 sequence (looked up): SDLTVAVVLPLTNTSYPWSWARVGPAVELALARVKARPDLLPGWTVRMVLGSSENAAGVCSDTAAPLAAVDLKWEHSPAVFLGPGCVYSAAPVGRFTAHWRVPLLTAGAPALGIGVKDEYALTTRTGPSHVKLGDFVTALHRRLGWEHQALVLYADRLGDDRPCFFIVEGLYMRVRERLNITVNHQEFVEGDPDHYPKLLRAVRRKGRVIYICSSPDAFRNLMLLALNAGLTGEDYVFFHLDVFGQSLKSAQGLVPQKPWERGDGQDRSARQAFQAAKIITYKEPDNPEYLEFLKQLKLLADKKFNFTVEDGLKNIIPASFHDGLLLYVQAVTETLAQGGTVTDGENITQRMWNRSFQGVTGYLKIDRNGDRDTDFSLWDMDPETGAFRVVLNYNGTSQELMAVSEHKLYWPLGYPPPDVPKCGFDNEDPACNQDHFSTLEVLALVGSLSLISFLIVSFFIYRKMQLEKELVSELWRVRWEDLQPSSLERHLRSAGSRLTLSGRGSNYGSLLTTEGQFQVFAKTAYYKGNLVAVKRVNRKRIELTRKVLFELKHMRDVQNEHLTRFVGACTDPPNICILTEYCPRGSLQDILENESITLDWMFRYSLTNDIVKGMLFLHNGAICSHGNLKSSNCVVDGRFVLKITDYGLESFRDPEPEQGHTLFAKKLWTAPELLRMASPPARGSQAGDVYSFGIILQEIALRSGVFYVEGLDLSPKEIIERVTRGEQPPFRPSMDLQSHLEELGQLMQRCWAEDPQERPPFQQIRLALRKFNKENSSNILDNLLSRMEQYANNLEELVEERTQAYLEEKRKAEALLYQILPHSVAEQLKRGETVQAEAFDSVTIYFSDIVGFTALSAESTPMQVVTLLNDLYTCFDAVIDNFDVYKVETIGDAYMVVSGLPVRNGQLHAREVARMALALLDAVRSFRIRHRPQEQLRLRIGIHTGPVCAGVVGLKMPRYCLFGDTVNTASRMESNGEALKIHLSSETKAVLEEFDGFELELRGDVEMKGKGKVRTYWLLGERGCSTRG
T2 sequence (peptide, looked up): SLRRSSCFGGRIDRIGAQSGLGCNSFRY

B1: 5591 IgG4_Pro (antibody, V domains shown)
VH: QVQLQQSGPGLVKPSQTLSLTCAISGDSVSSRSASWSWIRQSPGRGLEWLGRTYYRSHWYYEYAQSVKSRITINPDTSKNQFSLQLNSVTPEDTAVYYCARMDVPSFRYFDVWGQGTLVTVSS
VL: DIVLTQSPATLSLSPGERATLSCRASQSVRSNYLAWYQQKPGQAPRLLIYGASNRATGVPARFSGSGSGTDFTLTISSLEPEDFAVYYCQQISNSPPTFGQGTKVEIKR
In the case of B1, the Kd [1] is reported as 0.266 nM and the “Fold shift in EC50 of ANP (cGMP), HEK cells with rat NPRA” value [2] is reported as 3 fold.
